# In patent US20060115475A1 (published 2006):
# Residue numbers refer to the chain shown, from its start. Numbers in names are those of the source.
# B1: human-adapted anti-TLR3 mAb HV1/LV1 (antibody, human IgG4, V domains shown)
# VH: QVQLVQSGAEVKKPGASVKVSCKASGYTFTTYWIHWVRQAPGQRLEWMGEINPNNGRINYNEKFKTRVTITRDTSASTAYMELSSLRSEDTAVYYCARVGVMITTFPYWGQGTLVTVSS
# VL: DIQMTQSPSSLSASVGDRVTITCRASGNIHNYLAWYQQKPGKAPKLLIYNAKTLADGVPSRFSGSGSGTDFTLTISSLQPEDFATYYCQHFWSTPFTFGQGTKLEIK
# notes: Human IgG4 (S228P, F234A, L235A), kappa; not shown: human kappa light chain constant region
# B2: human-adapted C1068 variant mAb HBV1 (Vh CDR1 I34M in the HV1/LV1 background) (antibody, V domains shown)
# VH: B1 VH with I34M
# VL: B1 VL
# notes: Made in the HV1/LV1 background and generated 'as described above'; not shown: human kappa light chain constant region
# B3: human-adapted C1068 variant mAb HBV2 (Vh CDR2 Y60G in the HV1/LV1 background) (antibody, V domains shown)
# VH: B1 VH with Y60G
# VL: B1 VL
# notes: Made in the HV1/LV1 background; not shown: human kappa light chain constant region
# B4: human-adapted C1068 variant mAb HBV3 (Vh CDR2 N61A in the HV1/LV1 background) (antibody, V domains shown)
# VH: B1 VH with N61A
# VL: B1 VL
# notes: as for B3
# B5: human-adapted C1068 variant mAb HBV4 (Vh CDR2 F64G in the HV1/LV1 background) (antibody, V domains shown)
# VH: B1 VH with F64G
# VL: B1 VL
# notes: as for B3
# B6: human-adapted C1068 variant mAb HBV5 (Vh CDR3 M102I in the HV1/LV1 background) (antibody, V domains shown)
# VH: B1 VH with M102I
# VL: B1 VL
# notes: as for B3
# B7: human-adapted C1068 variant mAb HBV6 (Vκ CDR1 H30S in the HV1/LV1 background) (antibody, V domains shown)
# VH: B1 VH
# VL: B1 VL with H30S
# notes: as for B3
# B8: human-adapted anti-TLR3 mAb HV1/LV3 (antibody, human IgG4, V domains shown)
# VH: B1 VH
# VL: B1 VL with L46R, D70E
# notes: as for B1
# B9: human-adapted anti-TLR3 mAb HV1/LV5 (antibody, human IgG4, V domains shown)
# VH: B1 VH
# VL: B1 VL with A43V, F83V, Q100G, L104V
# notes: as for B1
# B10: human-adapted anti-TLR3 mAb HV1/LV7 (antibody, human IgG4, V domains shown)
# VH: B1 VH
# VL: B1 VL with Y36F, L46S
# notes: as for B1
# B11: human-adapted anti-TLR3 mAb HV4/LV1 (antibody, human IgG4, V domains shown)
# VH: B1 VH with R44G, I70M, A76I, S85R, E89D
# VL: B1 VL
# notes: as for B1
# B12: human-adapted anti-TLR3 mAb HV4/LV3 (antibody, human IgG4, V domains shown)
# VH: B1 VH with R44G, I70M, A76I, S85R, E89D
# VL: B1 VL with L46R, D70E
# notes: as for B1
# B13: human-adapted anti-TLR3 mAb HV4/LV5 (antibody, human IgG4, V domains shown)
# VH: B1 VH with R44G, I70M, A76I, S85R, E89D
# VL: B1 VL with A43V, F83V, Q100G, L104V
# notes: as for B1
# B14: human-adapted anti-TLR3 mAb HV4/LV7 (antibody, human IgG4, V domains shown)
# VH: B1 VH with R44G, I70M, A76I, S85R, E89D
# VL: B1 VL with Y36F, L46S
# notes: as for B1
# B15: human-adapted anti-TLR3 mAb HV5/LV3 (antibody, human IgG4, V domains shown)
# VH: B1 VH with P41T, R44G, I70M, D73N, A76I
# VL: B1 VL with L46R, D70E
# notes: as for B1
# B16: human-adapted anti-TLR3 mAb HV5/LV5 (antibody, human IgG4, V domains shown)
# VH: B1 VH with P41T, R44G, I70M, D73N, A76I
# VL: B1 VL with A43V, F83V, Q100G, L104V
# notes: as for B1
# B17: human-adapted anti-TLR3 mAb HV5/LV7 (antibody, human IgG4, V domains shown)
# VH: B1 VH with P41T, R44G, I70M, D73N, A76I
# VL: B1 VL with Y36F, L46S
# notes: as for B1
# B18: human-adapted anti-TLR3 mAb HV7/LV1 (antibody, human IgG4, V domains shown)
# VH: B1 VH with A16S, Y27G, T30S, R44G, R72A, T74E, A76T, Q111R
# VL: B1 VL
# notes: as for B1
# B19: human-adapted anti-TLR3 mAb HV7/LV5 (antibody, human IgG4, V domains shown)
# VH: B1 VH with A16S, Y27G, T30S, R44G, R72A, T74E, A76T, Q111R
# VL: B1 VL with A43V, F83V, Q100G, L104V
# notes: as for B1
# B20: human-adapted anti-TLR3 mAb HV7/LV7 (antibody, human IgG4, V domains shown)
# VH: B1 VH with A16S, Y27G, T30S, R44G, R72A, T74E, A76T, Q111R
# VL: B1 VL with Y36F, L46S
# notes: as for B1
# B21: murine anti-hTLR3 antagonist mAb 1068 (antibody, mouse IgG1, V domains shown)
# VH: QVQLQQPGAELVQPGTSVRLSCKASGYIFTTYWIHWVKQRPGQGLEWIGEINPNNGRINYNEKFKTKATLTVDKSSSTAYMQLSSLTSEDSAVYYCTRVGVMITTFPYWGQGTLVTVSA
# VL: DIQMTQSPASLSASVGETVTITCRASGNIHNYLAWYQQKQGKSPQLLVYNAKTLADGVPSRFSGSESGTQYSLKINSLQPEDFGSYYCQHFWSTPFTFGSGTKLELK
# notes: also called C1068; mAb C1068
# B22: human-adapted anti-TLR3 mAb HV5/LV1 (antibody, human IgG4, V domains shown)
# VH: B1 VH with P41T, R44G, I70M, D73N, A76I
# VL: B1 VL
# notes: as for B1
# Tests used:
# [1] = target: T1, Human hexa-histidine-TLR3 (human, UniProt O15455 24-703, limits assumed); experiment: Biacore 3000, hexa-histidine-TLR3 captured on anti-His antibody, mAb in solution, 25 C, 1:1 model
# T1 construct: Captured by anti-His antibody on a CM5 chip; also called TLR3 (captured on the chip surface); not shown: hexa-histidine tag
# [2] = target: T2, soluble human TLR3 extracellular domain (human, UniProt O15455 24-703); experiment: ELISA, TLR3 binding assay as in Example 20
# T2 construct: also called hTLR3 extracellular domain; extracellular domain of human TLR3
# [3] = target: T2, soluble human TLR3 extracellular domain; experiment: ELISA, TLR3 binding assay
# [4] = target: T2, soluble human TLR3 extracellular domain; experiment: ELISA, TLR3 binding assay as in Example 20; remark: listed apart in the source
# [5] = target: T2, soluble human TLR3 extracellular domain; experiment: ELISA, coated soluble hTLR3 extracellular domain, HRP-labeled anti-human IgG
# [6] = target: T2, soluble human TLR3 extracellular domain; experiment: Biacore 2000, mAb captured on protein A, TLR3 in solution, 25 C, 1:1 model
# Protocol: (§1) Measurement of binding affinity by Biacore was performed by mAb capture and TLR3 capture techniques. MAb capture analysis was performed at 25° C. using a Biacore 2000 biosensor equipped with a CM5 chip with surfaces modified with protein A (6,000 RU) at 25° C. by standard amine coupling. Antibody was diluted to 30 nM and captured for one minute on different protein A surfaces. TLR3 was injected at 0, 0.1, 0.3, 1.0, 3.0, and 9.0 nM and associations and dissociations were monitored for 5 minutes. The protein A modified surfaces were regenerated using two 6-second pulses 100 mM phosphoric acid. Available binding data sets were fit to a 1:1 interaction model (CLAMP™). The rate constants and their ratio (KD=kd/kₐ) and the error of fit carried over the estimate of the apparent equilibrium constants were calculated.
# [7] = target: T2, soluble human TLR3 extracellular domain; experiment: ELISA, coated soluble hTLR3 extracellular domain, anti-mouse IgG-HRP
# [8] = target: T2, soluble human TLR3 extracellular domain; experiment: Biacore 2000, mAb captured on protein A, TLR3 in solution, 25 C, 1:1 model; mAb capture (mAb on protein A chip, TLR3 in solution)
# Protocol: as §1
binder,measurement,setting,value
B1,Kd,[1],1.7 nM
B2,EC50,[2],0.017 µg/mL
B3,EC50,[2],0.0146 µg/mL
B4,EC50,[2],0.048 µg/mL
B5,EC50,[2],0.0409 µg/mL
B6,EC50,[2],0.0747 µg/mL
B7,EC50,[3],> 1 µg/mL
same,EC50,[4],1.22 µg/mL
B8,EC50,[5],0.118 µg/mL
B9,EC50,[5],0.0277 µg/mL
B10,Kd,[6],7.2 nM
same,EC50,[5],0.289 µg/mL
same,Kd,[1],90 nM
B11,EC50,[5],0.0291 µg/mL
B12,Kd,[6],0.5 nM
same,EC50,[5],0.0602 µg/mL
same,Kd,[1],3.4 nM
B13,EC50,[5],0.0187 µg/mL
B14,EC50,[5],0.183 µg/mL
B15,EC50,[5],0.0289 µg/mL
B16,Kd,[6],1.1 nM
same,EC50,[5],0.0137 µg/mL
same,Kd,[1],0.7 nM
B17,EC50,[5],0.0786 µg/mL
B18,EC50,[5],1.47 µg/mL
B19,EC50,[5],1.82 µg/mL
B20,EC50,[5],4.26 µg/mL
B21,EC50,[7],0.008 µg/mL
same,Kd,[1],0.316 nM
same,Kd,[8],1.2 nM
B22,Kd,[6],2 nM
same,EC50,[5],0.0155 µg/mL
same,Kd,[1],0.65 nM
